# IntAct's records for PubMed 16868027
# B1: Disintegrin and metalloproteinase domain-containing protein 22 (Homo sapiens), Q9P0K1-3 (parent)
# chain: MQAAVAVSVPFLLLCVLGTCPPARCGQAGDASLMELEKRKENRFVERQSIVPLRLIYRSGGEDESRHDALDTRVRGDLGGPQLTHVDQASFQVDAFGTSFILDVVLNHDLLSSEYIERHIEHGGKTVEVKGGEHCYYQGHIRGNPDSFVALSTCHGLHGMFYDGNHTYLIEPEENDTTQEDFHFHSVYKSRLFEFSLDDLPSEFQQVNITPSKFILKPRPKRSKRQLRRYPRNVEEETKYIELMIVNDHLMFKKHRLSVVHTNTYAKSVVNMADLIYKDQLKTRIVLVAMETWATDNKFAISENPLITLREFMKYRRDFIKEKSDAVHLFSGSQFESSRSGAAYIGGICSLLKGGGVNEFGKTDLMAVTLAQSLAHNIGIISDKRKLASGECKCEDTWSGCIMGDTGYYLPKKFTQCNIEEYHDFLNSGGGACLFNKPSKLLDPPECGNGFIETGEECDCGTPAECVLEGAECCKKCTLTQDSQCSDGLCCKKCKFQPMGTVCREAVNDCDIRETCSGNSSQCAPNIHKMDGYSCDGVQGICFGGRCKTRDRQCKYIWGQKVTASDKYCYEKLNIEGTEKGNCGKDKDTWIQCNKRDVLCGYLLCTNIGNIPRLGELDGEITSTLVVQQGRTLNCSGGHVKLEEDVDLGYVEDGTPCGPQMMCLEHRCLPVASFNFSTCLSSKEGTICSGNGVCSNELKCVCNRHWIGSDCNTYFPHNDDAKTGITLSGNGVAGTNIIIGIIAGTILVLALILGITAWGYKNYREQRQLPQGDYVKKPGDGDSFYSDIPPGVSTNSASSSKKRSNGLSHSWSERIPDTKHISDICENGRPRSNSWQGNLGGNKKKIRGKRFRPRSNSTE
# B2: Disintegrin and metalloproteinase domain-containing protein 22 (Homo sapiens), Q9P0K1-1 (parent)
# chain: MQAAVAVSVPFLLLCVLGTCPPARCGQAGDASLMELEKRKENRFVERQSIVPLRLIYRSGGEDESRHDALDTRVRGDLGGPQLTHVDQASFQVDAFGTSFILDVVLNHDLLSSEYIERHIEHGGKTVEVKGGEHCYYQGHIRGNPDSFVALSTCHGLHGMFYDGNHTYLIEPEENDTTQEDFHFHSVYKSRLFEFSLDDLPSEFQQVNITPSKFILKPRPKRSKRQLRRYPRNVEEETKYIELMIVNDHLMFKKHRLSVVHTNTYAKSVVNMADLIYKDQLKTRIVLVAMETWATDNKFAISENPLITLREFMKYRRDFIKEKSDAVHLFSGSQFESSRSGAAYIGGICSLLKGGGVNEFGKTDLMAVTLAQSLAHNIGIISDKRKLASGECKCEDTWSGCIMGDTGYYLPKKFTQCNIEEYHDFLNSGGGACLFNKPSKLLDPPECGNGFIETGEECDCGTPAECVLEGAECCKKCTLTQDSQCSDGLCCKKCKFQPMGTVCREAVNDCDIRETCSGNSSQCAPNIHKMDGYSCDGVQGICFGGRCKTRDRQCKYIWGQKVTASDKYCYEKLNIEGTEKGNCGKDKDTWIQCNKRDVLCGYLLCTNIGNIPRLGELDGEITSTLVVQQGRTLNCSGGHVKLEEDVDLGYVEDGTPCGPQMMCLEHRCLPVASFNFSTCLSSKEGTICSGNGVCSNELKCVCNRHWIGSDCNTYFPHNDDAKTGITLSGNGVAGTNIIIGIIAGTILVLALILGITAWGYKNYREQRQLPQGDYVKKPGDGDSFYSDIPPGVSTNSASSSKKRSNGLSHSWSERIPDTKHISDICENGRPRSNSWQGNLGGNKKKIRGKRFRPRSNSTETLSPAKSPSSSTGSIASSRKYPYPMPPLPDEDKKVNRQSARLWETSI
# partner: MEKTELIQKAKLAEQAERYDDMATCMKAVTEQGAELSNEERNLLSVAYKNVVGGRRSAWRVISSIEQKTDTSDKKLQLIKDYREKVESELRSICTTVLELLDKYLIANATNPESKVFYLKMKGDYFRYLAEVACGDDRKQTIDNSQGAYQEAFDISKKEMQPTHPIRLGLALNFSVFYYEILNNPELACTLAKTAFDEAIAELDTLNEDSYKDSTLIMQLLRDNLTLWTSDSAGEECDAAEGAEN
# B3: Disintegrin and metalloproteinase domain-containing protein 22 (Homo sapiens), Q9P0K1-1 (parent)
# chain: B2 chain
# Variants of: B1
# Settings: with 1433b_human YWHAB
row,effect of a mutation on the interaction,Variant
1,decreasing interaction,R831Q;S832G
2,decreasing interaction,R854Q;S855A
3,disrupting interaction,R831Q;S832G;R854Q;S855A

# Variants of: B1
# Settings: with 1433z_human YWHAZ
row,effect of a mutation on the interaction,Variant
1,decreasing interaction,R831Q;S832G
2,disrupting interaction,R831Q;S832G;R854Q;S855A

# Variants of: B2
# Settings: with 1433t_human YWHAQ
row,effect of a mutation on the interaction,Variant
1,disrupting interaction,R831Q;S832G;R854Q;S855A

# Variants of: B3
# Settings: with 1433z_human YWHAZ
row,effect of a mutation on the interaction,Variant
1,disrupting interaction,R831Q;S832G;R854Q;S855A

# Variants of: B3
# Settings: with 1433b_human YWHAB
row,effect of a mutation on the interaction,Variant
1,disrupting interaction,R831Q;S832G;R854Q;S855A
